# According to the supplement of paper PMC9170038:
# Test system: MS2 coat protein
# Assay: apparent KD of MS2 coat protein; designed switch direction (-1 OFF switch, 1 ON switch): -1; higher = weaker reporter binding
# Outline: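 The buffer was Tris-HCl pH 7.5 with KCl, MgCl2, BSA, DTT, tRNA and Tween-20. In it, SNAP-549-labelled MS2 coat protein was titrated in doubling steps from 0.7 or 1.5 nM to 3 µM over chip-bound RNA switches transcribed by stalled E. coli RNA polymerase on Illumina chips. Apparent KD is the per-design median over clusters of curve fits to normalised fluorescence.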
# [1] = Eterna round: R95, input ligand: FMN 200 uM
# [2] = Eterna round: R95, input ligand: microRNA oligo, concentration not stated
# [3] = Eterna round: R95, input ligand: none
# [4] = input ligand: microRNA oligo, concentration not stated
Sequence,apparent KD of MS2 coat protein [1] [nM],apparent KD of MS2 coat protein [2] [nM],apparent KD of MS2 coat protein [3] [nM],apparent KD of MS2 coat protein (input ligand: FMN 200 uM) [nM],apparent KD of MS2 coat protein [4] [nM],apparent KD of MS2 coat protein (input ligand: none) [nM]
AAAAAACAAGGAUAUACAAAAAAAAAAUGUGUUAAAAAUCCACAUGAGGAUCACCCAUGUAGAAGGUGUAAAAA [JR_Exclusion2_Sub004] (puzzle: Exclusion 2),81,104,172,,,
"AAAAAACAUGAGGAUCACCCAUGUAAGGAUAUGCUGAAAAACACGGAAAAAACGUGCAGCAGAAGGUACAAAAG [Mat - Exclusion 1 - Eli mod - D90] (Eterna round: R96, puzzle: Exclusion 1)",,,,100,55,61.6
AAAAAGGUAGGAUAUACGAAAAAAAAGGGUAGAAAAAAAACACAUGAGGAUCACCCAUGUAGAAGGACCAAAAU [salish99_ex2_r3_044] (puzzle: Exclusion 2),82.8,35.3,36.6,,,
"AAAAAGUUGAGAGGAUAUGGUGCCGAAACGGUGCUAGAAGGCUUUACAAAAAAACAUGAGGAUCACCCAUGUUCAUGUAGAGAA [AK ExNG1-1.1] (Eterna round: R96, puzzle: Exclusion NG 1)",,,,16.3,13.3,15.6
"AAAAAUCGAGGAUAUACAUGAGGAUCACCCAUGUGGGACCAAGAAAACACAAAAGAAAGUAGAAGGCGAUAAAA [Ex 3 May 23] (Eterna round: R96, puzzle: Exclusion 3)",,,,110,25.8,31.7
AAAACGGGAGGAUAUCGUAUCGUACACAUGAGGAUCACCCAUGUCCGGUGCAUCCUCAUCCGAGAAGGCCCAUAAA [Inisrarier] (puzzle: Exclusion 5),25.8,31.4,25.9,,,
"AAAAGAAAAGUAGGAUAUGUGAAAGGAAGUGUAACAGAAGGACUGUGGGUCUUCCGACAUGAGGAUCACCCAUGUAAAAGAAAA [PowerStrip EXNG 1.8] (Eterna round: R96, puzzle: Exclusion NG 1)",,,,114,6.35,53.9
"AAAAGAAAGGGAGGAUAUCUGACGGGAUACCAAAGAGAAGGCCCAGGCACAUGAGGAUCACCCAUGUUCGUGCGCCUACUUAAC [Enveri] (Eterna round: R96, puzzle: Exclusion NG 1)",,,,28.3,9.73,14.4
AAAAGAACAGGAUAUUCGUGAAAUAACAUGAGGAUCACCCAUGUUAACGCGGGUGAGAACGAAGAAGGGUUCUAAA [Ceries] (puzzle: Exclusion 5),121,42.1,61.4,,,
AAAAGAAUAGGAUAUACAUGAGGAUCACCCAUGUGAGGGCACGGCCGGCGCGGGCCCGGUAGAAGGAUUCAAAA [Exc;s3-X] (puzzle: Exclusion 3),23.1,22.5,25.6,,,
AAAAGACAUGAGGAUCACCCAUGUGAGGAUAUUGGAAGAAAGAAAAGAAAGAAAGAAACGAGAAGGCACAAAAG [Exclusion] (puzzle: Exclusion 1),68.2,60.9,51.9,,,
AAAAGCCAAGGAUAUACAUGAGGAUCACCCAUGUAAGAAAUGGGCGCUACCGUUCCGUGUAGAAGGUGGGAAAA [Inuserce] (puzzle: Exclusion 3),,26,,,,
AAAAGCCAUGUUAGGAUAUGCAUGGCAGCUGCGAUGCAGAAGGAACAUGAGGAUCACCCAUGUGAACUUAAAUA [Anmaleus] (puzzle: Brourd's mod of Exclusion 4),21.2,16.2,18.3,,,
"AAAAGCUUUUUAAAAAAAAACAUGAGGAUCACCCAUGUUAAAAAAUAUAAGGUGAUAAAAAAUUGUCAAAAAAAAAA [Jieuxbot 008 - Jieux - Sensor v2, turn-off variant] (Eterna round: R96, puzzle: Sensor v2, turn-off variant)",,,,129,148,108
"AAAAGGCAGGGAGGAUAUGCUUACCUGGGUCGUCUUCGAACAUGAGGAUCACCCAUGUAGUCGACGCAGAAGGCCCUCAAAGCC [Mat - Exclusion NG 2 - Mod of JL - D59] (Eterna round: R96, puzzle: Exclusion NG 2)",,,,42.7,25.6,21.7
AAAAGGCUAGGAUAUACCAGUGGGUGUAAGAACUCAAAGUUACAUGAGGAUCACCCAUGUAGAAGGAGUAAAAU [Diriti] (puzzle: Exclusion 2),,16.2,,,,
"AAAAGGUAAGGAUAUACAUGCCCAAAACACGUCCUCAGUCCACAUGAGGAUCACCCAUGUAGAAGGUACGAAAA [Ribiesdi] (Eterna round: R97, puzzle: Exclusion 2)",,,,285,,93.2
"AAAAGUGAAGAGGAUAUCUGCGCCGAACGGUAAAGAGAAGGCUUCACAUGAGGAUCACCCAUGUGGGCCACAGA [EX6 C.5] (Eterna round: R97, puzzle: Exclusion 6)",,,,79.3,,19.8
AAAAGUUAAGGAUAUACAGGGAGCCGCGGCGACUCGCCGCAACAUGAGGAUCACCCAUGUAGAAGGUAGCCAAA [Enbibi] (puzzle: Exclusion 2),,23.7,,,,
"AAAAGUUAAGGAUAUACUUGAGGAUCACCCAAGUAGGUGGCUUCAGCCGGAAACCGGCGUAGAAGGUAGCAGAA [Laentezabe] (Eterna round: R97, puzzle: Exclusion 3)",,,,54.9,,56.3
"AAAAUAAAAAUAAACAAGCACAUGAGGAUCACCCAUGUUCGUCUUAUAAAAAUAAAAAUAAAAAACAAAAAAUAAAA [Sensor V2: 48] (Eterna round: R96, puzzle: Sensor v2, turn-off variant)",,,,19,29.6,20.6
"AAAAUAACAUGAGGAUCACCCAUGUAAUUGGGUAGUCCGAGCGAGGAUAUCCUCGCCGGAAAAGAGGAGAAGGCGCAAUGAAAG [Usxeeran] (Eterna round: R96, puzzle: Exclusion NG 3)",,,,882,424,509
"AAAAUACAUGAGGAUCACCCAUGUGAGGAUAUGAGCGUCAUUUAUAUAUAUUAGACGCUCAGAAGGCACAUAAA [JR_Ex1_Sub069] (Eterna round: R97, puzzle: Exclusion 1)",,,,214,,44.3
"AAAAUGUGAGGAUAUCACGGAGCCUCGCAUGACGAGACUCCUGAGAAGGCACAUGAGGAUCACCCAUGUCCUGU [EX4 A.10] (Eterna round: R97, puzzle: Exclusion 4)",,,,382,,57
AAAAUGUGAGGAUAUCAGGUGUGCUAGAGAACUGGUACAUCUGAGAAGGCACAUGAGGAUCACCCAUGUUCUUC [Mat - Exclusion 4 - Mod of JL - D57] (puzzle: Exclusion 4),,30.9,,,,
AAAAUGUGAGGAUAUCAGGUGUGCUAGCGUACUGGUACAUCUGAGAAGGCACAUGAGGAUCACCCAUGUUUCUU [Mat - Exclusion 4 - Mod of JL - D44] (puzzle: Exclusion 4),,22.5,,,,
